Results reported in US20230279151A1 (Sanofi, published 2023).

What was measured:
[1] = biological target: T1, human IL4 (IL004, Millipore) (human, UniProt P05112 25-153); experiment: SPR, Biacore 3000, antibody captured by anti-human Fc, IL4 as analyte; HEK293-FS expression, processed in vivo
T1 construct: Commercial recombinant antigen; also called Antigen IL4
T1 sequence (looked up): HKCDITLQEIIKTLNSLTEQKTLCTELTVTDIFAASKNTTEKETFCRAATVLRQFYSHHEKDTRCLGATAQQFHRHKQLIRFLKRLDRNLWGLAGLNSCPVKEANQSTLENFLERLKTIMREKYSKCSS
Method: (§1) Binding of antigens to the antibody constructs was measured using surface plasmon resonance (SPR) with a BlAcore 3000 instrument (GE Healthcare) with HBS-EP buffer (GE Healthcare). As antigens, human IL4 (IL004, Millipore) and human IL13 (IL012, Millipore) were used. The antihuman Fc capture antibody (human antibody capture kit, GE Life Sciences) was immobilized via primary amine groups (11000 RU) on a research grade CM5 chip (GE Life Sciences) using standard procedures. […] The tested antibody constructs were […] and injected at 100 nM concentration for 240 sec with a dissociation time of 300 sec at a flow rate of 30 µL/min. For human IL4 and IL13, a dilution series of 0.1 nM to 3 nM and 0.8 nM to 25 nM, respectively were used. Chip surfaces were regenerated with 2 min injects of the regeneration buffer provided with the capture kit. Sensorgrams were double-referenced with a blank chip surface and HBS-EP buffer blanks. Data analysis was performed using the BIAevaluation software v4.1.
(§2) The binding of the different bispecific Tandem-IgG constructs expressed in HEK293-FS or ExpiCHO cells as well as in vivo processed Tandem-IgG from the co-transfection with Furin variants was measured via surface plasmon resonance (SPR). The binding to the two human antigens IL4 and IL13 were compared to the binding characteristics of the individual monoclonal antibodies. […] In contrast, specific binding to IL13 was only detectable for in vivo processed Tandem-IgGs as well as the Tandem-lgG control comprising two LCs. […] Thus, processing of the linker sequence connecting the VLb (VL against IL13) at the inner position of the Tandem-lgG with the CK domain of the IL4 binding Fab at the outer position is required for a functional IL13 binding site. In vivo processing can thereby be mediated via endogenously expressed proteases or via co-transfected Furin variants.

[2] = biological target: T1, human IL4 (IL004, Millipore); experiment: SPR, Biacore 3000, antibody captured by anti-human Fc, IL4 as analyte; second block of the table (presumably ExpiCHO expression), processed in vivo
Method: as §1, §2

[3] = biological target: T1, human IL4 (IL004, Millipore); experiment: SPR, Biacore 3000, antibody captured by anti-human Fc, IL4 as analyte; HEK293-FS, co-expressed with hFurin (SEQ ID NO 37)
Method: as §1, §2

[4] = biological target: T1, human IL4 (IL004, Millipore); experiment: SPR, Biacore 3000, antibody captured by anti-human Fc, IL4 as analyte; HEK293-FS, co-expressed with hFurin-KDEL (SEQ ID NO 38)
Method: as §1, §2

[5] = biological target: T1, human IL4 (IL004, Millipore); experiment: SPR, Biacore 3000, antibody captured by anti-human Fc, IL4 as analyte; HEK293-FS expression
Method: as §1, §2

B1: sLC-Tandem-(anti-IL4xanti-IL13)-PCL2-huIgG1 (bispecific antibody)
light: DIQMTQSPASLSVSVGDTITLTCHASQNIDVWLSWFQQKPGNIPKLLIYKASNLHTGVPSRFSGSGSGTGFTLTISSLQPEDIATYYCQQAHSYPFTFGGGTKLEIKRTVAAPSVFIFPPSDEQLKSGTASVVCLLNNFYPREAKVQWKVDNALQSGNSQESVTEQDSKDSTYSLSSTLTLSKADYEKHKVYACEVTHQGLSSPVTKSFNRGECHRRRKR
chain: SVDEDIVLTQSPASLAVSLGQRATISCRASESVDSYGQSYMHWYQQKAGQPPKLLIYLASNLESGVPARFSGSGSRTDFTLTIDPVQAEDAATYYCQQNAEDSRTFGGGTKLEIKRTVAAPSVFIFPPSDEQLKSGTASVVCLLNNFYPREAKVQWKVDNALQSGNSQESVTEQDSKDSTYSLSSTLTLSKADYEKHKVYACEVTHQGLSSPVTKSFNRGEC
heavy: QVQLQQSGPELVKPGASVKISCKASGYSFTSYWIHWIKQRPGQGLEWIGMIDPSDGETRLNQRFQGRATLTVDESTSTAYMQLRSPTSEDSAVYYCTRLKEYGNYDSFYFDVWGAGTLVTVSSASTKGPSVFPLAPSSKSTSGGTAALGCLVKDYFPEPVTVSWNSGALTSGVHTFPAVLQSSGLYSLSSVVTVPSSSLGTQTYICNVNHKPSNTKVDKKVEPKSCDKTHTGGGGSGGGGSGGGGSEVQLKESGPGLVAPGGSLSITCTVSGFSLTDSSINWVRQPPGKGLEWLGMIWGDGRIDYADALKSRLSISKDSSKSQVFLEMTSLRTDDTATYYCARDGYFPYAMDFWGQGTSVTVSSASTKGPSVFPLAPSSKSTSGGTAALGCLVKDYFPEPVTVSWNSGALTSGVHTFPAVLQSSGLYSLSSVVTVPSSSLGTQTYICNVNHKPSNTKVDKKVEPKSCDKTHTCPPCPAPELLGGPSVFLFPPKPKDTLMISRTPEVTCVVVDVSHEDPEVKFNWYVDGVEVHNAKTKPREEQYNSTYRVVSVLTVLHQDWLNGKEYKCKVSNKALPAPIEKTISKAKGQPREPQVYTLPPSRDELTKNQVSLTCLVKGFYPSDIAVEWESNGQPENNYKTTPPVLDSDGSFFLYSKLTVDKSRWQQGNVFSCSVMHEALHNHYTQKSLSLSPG
notes: also called sLC-PCL2-Tandem-IgG; sLC Tandem-IgG-PCL2
[1]
  Kd: 1.05 pM
  koff: 0.000189 s⁻¹
  kon: 1.79e+08 M⁻¹ s⁻¹
[2]
  Kd: 1.33 pM
  koff: 0.000249 s⁻¹
  kon: 1.87e+08 M⁻¹ s⁻¹

B2: sLC-Tandem-(anti-IL4xanti-IL13)-His8-PCL1-huIgG1 (bispecific antibody)
light: DIQMTQSPASLSVSVGDTITLTCHASQNIDVWLSWFQQKPGNIPKLLIYKASNLHTGVPSRFSGSGSGTGFTLTISSLQPEDIATYYCQQAHSYPFTFGGGTKLEIKRTVAAPSVFIFPPSDEQLKSGTASVVCLLNNFYPREAKVQWKVDNALQSGNSQESVTEQDSKDSTYSLSSTLTLSKADYEKHKVYACEVTHQGLSSPVTKSFNRGECRRKR
chain: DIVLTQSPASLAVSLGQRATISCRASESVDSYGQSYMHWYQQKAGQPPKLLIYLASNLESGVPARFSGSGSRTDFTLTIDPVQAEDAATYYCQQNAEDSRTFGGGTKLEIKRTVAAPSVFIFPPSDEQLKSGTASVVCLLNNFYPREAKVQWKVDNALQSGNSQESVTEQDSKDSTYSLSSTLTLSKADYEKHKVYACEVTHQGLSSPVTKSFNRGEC
heavy: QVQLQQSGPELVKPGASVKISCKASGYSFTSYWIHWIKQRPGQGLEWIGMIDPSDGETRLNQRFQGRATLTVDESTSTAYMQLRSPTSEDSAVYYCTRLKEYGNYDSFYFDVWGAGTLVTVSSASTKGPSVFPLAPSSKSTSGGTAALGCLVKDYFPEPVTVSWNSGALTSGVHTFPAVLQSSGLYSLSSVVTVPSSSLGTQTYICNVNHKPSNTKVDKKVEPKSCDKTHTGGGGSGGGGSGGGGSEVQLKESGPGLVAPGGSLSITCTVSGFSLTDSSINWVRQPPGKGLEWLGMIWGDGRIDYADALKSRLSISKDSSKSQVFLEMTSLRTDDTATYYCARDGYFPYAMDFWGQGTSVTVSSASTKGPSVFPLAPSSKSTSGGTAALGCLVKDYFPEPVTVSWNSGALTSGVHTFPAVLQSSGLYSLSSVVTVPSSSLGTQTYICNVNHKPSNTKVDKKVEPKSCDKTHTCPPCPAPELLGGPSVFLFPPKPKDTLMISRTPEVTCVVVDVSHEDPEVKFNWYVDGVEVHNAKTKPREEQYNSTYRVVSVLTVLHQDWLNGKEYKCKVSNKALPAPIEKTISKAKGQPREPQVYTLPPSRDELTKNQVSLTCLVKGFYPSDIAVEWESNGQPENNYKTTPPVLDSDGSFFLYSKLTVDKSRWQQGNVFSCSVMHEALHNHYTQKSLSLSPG
notes: In both the single light chain was processed in vivo; also called 17, 13 with 37; 17, 13 with 38
[3]
  Kd: 1.53 pM
  koff: 0.000211 s⁻¹
  kon: 1.38e+08 M⁻¹ s⁻¹
[4]
  Kd: 1.86 pM
  koff: 0.000299 s⁻¹
  kon: 1.61e+08 M⁻¹ s⁻¹

B3: Tandem-(anti-IL4xanti-IL13)-huIgG1 (bispecific antibody)
light 1: DIQMTQSPASLSVSVGDTITLTCHASQNIDVWLSWFQQKPGNIPKLLIYKASNLHTGVPSRFSGSGSGTGFTLTISSLQPEDIATYYCQQAHSYPFTFGGGTKLEIKRTVAAPSVFIFPPSDEQLKSGTASVVCLLNNFYPREAKVQWKVDNALQSGNSQESVTEQDSKDSTYSLSSTLTLSKADYEKHKVYACEVTHQGLSSPVTKSFNRGEC
light 2: not shown
heavy: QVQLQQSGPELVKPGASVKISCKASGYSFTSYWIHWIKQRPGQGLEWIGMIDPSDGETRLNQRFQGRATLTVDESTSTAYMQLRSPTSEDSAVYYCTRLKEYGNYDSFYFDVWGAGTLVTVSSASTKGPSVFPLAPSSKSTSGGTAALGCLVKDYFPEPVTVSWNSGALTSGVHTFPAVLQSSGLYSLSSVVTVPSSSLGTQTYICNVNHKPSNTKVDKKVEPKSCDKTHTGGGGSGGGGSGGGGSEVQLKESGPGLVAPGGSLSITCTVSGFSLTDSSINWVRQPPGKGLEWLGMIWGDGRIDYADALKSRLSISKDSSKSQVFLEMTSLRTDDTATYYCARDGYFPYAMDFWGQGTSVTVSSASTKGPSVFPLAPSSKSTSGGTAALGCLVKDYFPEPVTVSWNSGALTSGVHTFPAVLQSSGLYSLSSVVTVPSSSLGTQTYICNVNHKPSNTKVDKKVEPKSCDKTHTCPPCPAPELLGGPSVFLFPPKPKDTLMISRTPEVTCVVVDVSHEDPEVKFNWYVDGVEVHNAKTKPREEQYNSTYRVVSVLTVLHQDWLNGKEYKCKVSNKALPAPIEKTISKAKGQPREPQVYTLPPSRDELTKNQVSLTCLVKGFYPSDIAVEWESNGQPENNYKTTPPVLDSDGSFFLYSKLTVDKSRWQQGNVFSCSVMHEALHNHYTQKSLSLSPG
notes: Control with the two light chains expressed as separate chains; also called Tandem-IgG control; control Tandem-IgG
[5]
  Kd: 2.32 pM
  koff: 0.000149 s⁻¹
  kon: 6.39e+07 M⁻¹ s⁻¹
